By EC50 is commonly meant the concentration at which the effect is half-maximal. In general, Kd refers to the free concentration of one partner at which half of the binding sites on the other are occupied at equilibrium, for simple one-to-one binding. Higher therefore signals lower affinity. The koff is the first-order rate constant of dissociation. Broadly, the kon is the rate constant with which the complex forms. A higher kon goes with fast association. What is called IC50 is the midpoint of a concentration-inhibition curve.

Positions count from the first letter of the chain named.

Results on eight molecules are retold here after patent publication US20230106715A1 (BIOSION, published 2023).

To fix the notation:
T1: recombinant human Siglec15-his protein (human, UniProt Q6ZMC9 20-263)
T1 construct: In house made; Biotin-labeled in the capture ELISA
T1 sequence: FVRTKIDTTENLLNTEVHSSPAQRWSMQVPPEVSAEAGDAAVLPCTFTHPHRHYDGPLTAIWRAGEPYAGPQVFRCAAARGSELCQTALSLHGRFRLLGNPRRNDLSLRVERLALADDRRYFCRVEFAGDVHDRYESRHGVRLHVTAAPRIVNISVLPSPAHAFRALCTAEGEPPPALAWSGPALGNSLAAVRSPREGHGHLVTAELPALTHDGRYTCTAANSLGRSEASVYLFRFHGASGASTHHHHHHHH

T2: mouse Siglec15-his protein (mouse)
T2 construct: In house made
T2 chain: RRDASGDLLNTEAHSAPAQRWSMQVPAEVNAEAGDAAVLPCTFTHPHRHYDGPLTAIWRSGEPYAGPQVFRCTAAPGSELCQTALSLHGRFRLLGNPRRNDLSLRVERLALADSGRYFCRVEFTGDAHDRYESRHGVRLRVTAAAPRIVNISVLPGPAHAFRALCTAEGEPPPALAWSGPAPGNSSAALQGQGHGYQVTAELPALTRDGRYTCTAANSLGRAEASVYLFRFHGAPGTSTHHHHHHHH

B1: anti-Siglec15 benchmark (ch5G12) (antibody, human IgG1, kappa, V domains shown)
VH: QVQLQQPGAELVKPGASVKMSCKASGYTFTSYWITWVIQRPGQGLEWIGDIYCGSDTMHYNEKFKNKATLTVDTSSSTAYMQLSSLTSEDSAVYYCARWWDYGSSYDYFDYWGQGTTLTVSS
VL: DIKMTQSPSSMYASLGERVTITCKASQDINSYLSWFQQKPGKSPKTLIYRANRLVDGVPSRFSGSGSGQDYSLTISSLEYEDMGIYYCLQYDEFPYTFGGGTKLEIKR
notes: ch5G12 (US 20190202912A1); also called BM; Siglec15-ch5G9
B2: A2A5C7E8 (antibody, V domains shown)
VH: EVQLVQSGAEVKKPGESLRISCKGSGYSFTTYWISWVRQMPGKGLEWMGLIDPSDSYTNYSPSFQGHVTISTDKSISTAYLQWSSLKASDTAMYYCARGGYYGSEEDYWGQGTLVTVSS
VL: EIVLTQSPGTLSLSPGERATLSCRASQSVSSSRLAWFQQKSGQAPRLLIFDASSRATGIPDRFSGSGSGTDFTLTISRLEPEDFAVYYCQQYGSSPRTFGQGTKVEFK
notes: Fully human antibody from transgenic mouse hybridoma; also called A2A5C7E8-1
B3: A2A5C7E8-2 (antibody, human IgG1, kappa, V domains shown)
VH: B2 VH with D55E
VL: EIVLTQSPGTLSLSPGERATLSCRASQSVSSSRLAWFQQKSGQAPRLLIFDASSRATGIPDRFSGSGSGTDFTLTISRLEPEDFAVYYCQQYGSSPRTFGQGTKVEFKR
notes: Variant of A2A5C7E8 modified in VH CDR2 (X1 = E)
B4: A2A5C7E8-3 (antibody, human IgG1, kappa, V domains shown)
VH: B2 VH with Q65K
VL: B3 VL
notes: Variant of A2A5C7E8 modified in VH CDR2 (X2 = K)
B5: A1E10G7H9 (antibody, V domains shown)
VH: QVQLQESGPGLVKPSGTLSLTCAVSGGSISSSNWWHWVRQPPGKGLEWIGEIYHSGNTNYKPSLKSRVTISVDKSKNQFSLKLSSVTAADTAVYYCARDEGNGWSNAFDIWGQGTMVTVSS
VL: ENVLTQSPGTLSLSPGERVTLSCRASQSVSSSYLAWYQQKPGQAPRFLIYGASGGATGIPDRFSGSGSGTDFTLTISRLEPEDFAVYYCQQYGSSPITFGQGTRLEIK
notes: Fully human antibody from transgenic mouse hybridoma
B6: B2D7H7A3C1 (antibody, V domains shown)
VH: QVQLQQSGAELVRPGTSVQMSCKAAGYTFTNYWIGWVKQRPGHGLEWVGDIHPGINYTNNNEKFRGKATLTADTSSNTAYMQLRGLTSDDSAIYYCARVDYDYDGSYIMDYWGQGTSVTVSS
VL: QIVLSQSPALLSASPGEKVTMTCRASSSVSYMYWYQQKPGSSPKPWIYATSNLTSGVPARFSGSGSGTSYSLTISRVEAEDAATYFCQQWNSKPWTFGGGSKLEIR
notes: Mouse monoclonal antibody from hybridoma; also called mouse B2D7H7A3C1
B7: B2H2H1H7 (antibody, V domains shown)
VH: B6 VH with N77S
VL: B6 VL with V3I, K102R
notes: Mouse monoclonal antibody from hybridoma; also called mouse B2H2H1H7; B2H2H1A7
B8: B2G12H3E8 (antibody, V domains shown)
VH: B6 VH with Q5K, A25V, N77S
VL: B6 VL
notes: Mouse monoclonal antibody from hybridoma; also called mouse B2G12H3E8

For one assay, the target named is T1, recombinant human Siglec15-his protein. In words: capture ELISA, captured antibody, biotin-labeled human Siglec15-his in solution. As to the method:
(§1) Briefly, 96-well plates were coated with 100 μl of 2 μg/ml AffiniPure Goat Anti-Human IgG F(ab′)₂ fragment specific (Jackson Immuno Research, Cat #109-005-097) in PBS for 2 hours at 37° C. Plates were washed once with wash buffer (PBS+0.05% v/v Tween-20, PBST) and then blocked with 200 μl blocking buffer (5% w/v non-fatty milk in PBST) overnight at 4° C. Plates were washed 4 times and respectively incubated with 100 μl serially diluted anti-Siglec15 antibodies of the disclosure, the benchmark and hIgG (human immunoglobulin (pH4) for intravenous injection, Hualan Biological Engineering Inc.), 5-fold dilution in 2.5% w/v non-fatty milk in PBST starting at 66.7 nM, for 40 minutes at 37° C., and then washed 4 times again. Plates containing captured antibodies were incubated with 100 μl biotin-labeled human Siglec15-his protein (in house made with SEQ ID NO: 20, 145 ng/ml in 2.5% w/v non-fatty milk in PBST) for 40 minutes at 37° C., washed 4 times, and incubated with streptavidin conjugated HRP (1:10000 dilution in PBST, Jackson Immuno Research, Cat #016-030-084, 100 μl/well) for 40 minutes at 37° C. After a final wash, plates were incubated with 100 μl/well ELISA substrate TMB (Innoreagents, Cat #TMB-S-002). The reaction was stopped in 4 minutes at room temperature with 50 μl/well 1M H₂SO₄, and the absorbance of each well was read on a microplate reader using dual wavelength mode with 450 nm for TMB and 630 nm as the reference wavelength, then the OD (450-630) values were plotted against antibody concentration. Data was analyzed using Graphpad Prism software and EC₅₀ values were reported.
For orientation: ELISA stands for enzyme-linked immunosorbent assay.
As to B1, the EC50 was 1790 pM.

As to B2, the EC50 was determined as 84.8 pM.

On to B3, for which the EC50 was 502 pM.

Turning to B4, the EC50 was 90.2 pM.

The next assay has the same target. Described as above. This is another data set of the same source. As to the method: as §1
Take B1: the EC50 was determined as 2930 pM.

As for B2, the EC50 came out at 232 pM.

Turning to B5, the EC50 is 252 pM.

The next assay addresses T2, mouse Siglec15-his protein. In words: SPR Biacore T200, antibody captured by anti-human IgG, antigen as analyte, 1:1 fit. As to the method:
Briefly, goat anti-human IgG (GE healthcare, Cat #BR100839, Human Antibody Capture Kit) was covalently linked to a CM5 chip (carboxy methyl dextran coated chip, GE healthcare, Cat #BR-1005-30) via primary amines, using a standard amine coupling kit provided by Biacore (GE healthcare, Pittsburgh, Pa., USA). Un-reacted moieties on the biosensor surface were blocked with ethanolamine. Then, purified anti-Siglec15 antibodies of the disclosure at the concentration of 13.3 nM and an anti-Siglec15 benchmark (ch5G12, also referred to as BM, see U.S. Patent Publication No. 20190202912A1, amino acid sequences of the heavy chain and light chain set forth in SEQ ID NOs: 24 and 25, respectively) at 13.3 nM, were respectively flowed onto the chip at a flow rate of 10 μL/min. Then, serially diluted recombinant human Siglec15-his protein (in house made, amino acid sequence set forth in SEQ ID NO: 20) or cynomolgus monkey Siglec15-his protein (in house made, amino acid sequence set forth in SEQ ID NO: 21), 2-fold serial dilution in HBS-EP⁺ buffer starting at 80 nM, were respectively flown onto the chip at a flow rate of 30 μL/min. The antigen-antibody association kinetics was followed for 2 minutes and the dissociation kinetics was followed for 10 minutes. The association and dissociation curves were fit to a 1:1 Langmuir binding model using BIAcore evaluation software.
For the BIAcore test measuring the binding affinities of the modified A2A5C7E8 variants to mouse Siglec 15, mouse Siglec15-his protein (in house made with SEQ ID NO: 22) was used.
In general terms: In SPR one partner is held on a chip, and binding of the other changes the refractive index at the surface.
Regarding B1, the Kd came out at 170 pM, the off-rate (koff) amounted to 0.000931 s⁻¹ and the kon was found to be 5.47e+06 M⁻¹ s⁻¹.

Take B2: the affinity, expressed as Kd, was 87.5 pM; the dissociation rate constant (koff) came to 0.000187 s⁻¹; the kon amounted to 2.14e+06 M⁻¹ s⁻¹.

B3 returned a Kd of 188 pM, a koff of 0.000495 s⁻¹ and a kon of 2.63e+06 M⁻¹ s⁻¹.

The molecule B4 returned a Kd of 73.7 pM, a koff of 0.000165 s⁻¹ and a kon of 2.24e+06 M⁻¹ s⁻¹.

The target of another assay is T3, human Siglec15-Fc protein (human).
T3 construct: In house made; also called recombinant human Siglec15 protein with human IgG1 Fc at the C-terminus
T3 sequence (chain, as listed by the source limits assumed): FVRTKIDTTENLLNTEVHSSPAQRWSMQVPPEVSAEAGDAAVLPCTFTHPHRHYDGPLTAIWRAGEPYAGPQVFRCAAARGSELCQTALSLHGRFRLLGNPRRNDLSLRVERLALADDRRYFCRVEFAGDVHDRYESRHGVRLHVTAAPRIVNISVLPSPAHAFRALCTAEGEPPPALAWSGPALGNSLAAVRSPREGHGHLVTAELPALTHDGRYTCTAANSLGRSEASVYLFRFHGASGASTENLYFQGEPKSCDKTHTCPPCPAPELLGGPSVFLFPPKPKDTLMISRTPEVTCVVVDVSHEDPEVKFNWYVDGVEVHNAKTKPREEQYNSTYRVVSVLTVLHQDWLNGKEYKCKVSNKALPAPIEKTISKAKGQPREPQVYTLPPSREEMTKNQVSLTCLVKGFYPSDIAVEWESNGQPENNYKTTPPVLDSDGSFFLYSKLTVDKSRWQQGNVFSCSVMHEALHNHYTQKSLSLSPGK
The assay is described as follows: competitive ELISA: biotin-labeled human Siglec15-Fc in solution, competitor coated benchmark. As for the experimental part:
The abilities of the anti-Siglec15 antibodies of the disclosure to block benchmark-human Siglec15 binding were measured in a competitive ELISA assay. Briefly, the benchmark was coated on 96-well micro plates at 2 μg/mL in PBS, 100 μl per well, and incubated for 2 hours at 37° C. Then plates were washed once with wash buffer, and blocked with 5% w/v non-fatty milk in PBST overnight at 4° C. The next day, the anti-Siglec15 antibodies of the disclosure or controls were diluted with biotin labeled human Siglec15-Fc protein (prepared in-house with SEQ ID NO: 19, 37 ng/ml in PBST with 2.5% w/v non-fatty milk), starting at 80 nM with a 4-fold serial dilution, and incubated at room temperature for 40 minutes. After plate washing 4 times, the antibody/Siglec15-Fc mixtures were added to benchmark coated plates, 100 μl per well. After incubation at 37° C. for 40 minutes, plates were washed 4 times again using wash buffer. Then the plates were added and incubated with 100 μl/well streptavidin conjugated HRP for 40 minutes at 37° C. Plates were washed again using wash buffer. Finally, TMB was added and the reaction was stopped using 1M H₂SO₄, and the absorbance of each well was read on a microplate reader using dual wavelength mode with 450 nm for TMB and 630 nm as the reference wavelength, then the OD (450-630) values were plotted against antibody concentration. Data was analyzed using Graphpad Prism software and IC₅₀ values were reported.
The mouse anti-Siglec15 antibodies of the disclosure were also tested in ligand blocking ELISA and benchmark blocking ELISA following the protocols described above.
Molecule B6 displayed an IC50 of 81 pM.

B7: the IC50 turned out to be 64.2 pM. The IC50 values of the last two molecules are within 1.5-fold of each other.

B8 returned an IC50 of 63 pM.

As to B1, the IC50 is 447 pM.
